Experimental data from patent US20260151494A1 (ARO BIOTHERAPEUTICS, published 2026).

Legend:
[1] = biological target: T1, human CD71 extracellular domain (human, UniProt P02786 89-760, biotinylated); assay: primary ELISA, RLU over HSA
T1 construct: also called hCD71; CD71-ECD

[2] = biological target: T2, apical domain of human CD71 (human, UniProt P02786 189-383, limits assumed); assay: primary ELISA, RLU over HSA
T2 construct: domain: apical domain; Screen 4 panned on human apical domains, the ELISA text says only 'apical domain'

[3] = biological target: T1, human CD71 extracellular domain; assay: primary ELISA; note: test concentration or dose not given here
[4] = biological target: T2, apical domain of human CD71; assay: primary ELISA; note: test concentration or dose not given here
[5] = biological target: T3, apical domain of cynomolgus CD71 (cynomolgus, UniProt A0A2K5X958 189-383); assay: primary ELISA; note: test concentration or dose not given here
T3 construct: domain: apical domain; also called Cyno apical domain

[6] = biological target: T4, human CD71 extracellular domain (human, UniProt P02786 89-760); assay: primary ELISA; note: test concentration or dose not given here
T4 construct: also called hCD71; human CD71-ECD

[7] = biological target: T3, apical domain of cynomolgus CD71; assay: primary ELISA, signal ratio to HSA
[8] = biological target: T4, human CD71 extracellular domain; assay: primary ELISA, signal ratio to HSA

T1 sequence (P02786 89-760): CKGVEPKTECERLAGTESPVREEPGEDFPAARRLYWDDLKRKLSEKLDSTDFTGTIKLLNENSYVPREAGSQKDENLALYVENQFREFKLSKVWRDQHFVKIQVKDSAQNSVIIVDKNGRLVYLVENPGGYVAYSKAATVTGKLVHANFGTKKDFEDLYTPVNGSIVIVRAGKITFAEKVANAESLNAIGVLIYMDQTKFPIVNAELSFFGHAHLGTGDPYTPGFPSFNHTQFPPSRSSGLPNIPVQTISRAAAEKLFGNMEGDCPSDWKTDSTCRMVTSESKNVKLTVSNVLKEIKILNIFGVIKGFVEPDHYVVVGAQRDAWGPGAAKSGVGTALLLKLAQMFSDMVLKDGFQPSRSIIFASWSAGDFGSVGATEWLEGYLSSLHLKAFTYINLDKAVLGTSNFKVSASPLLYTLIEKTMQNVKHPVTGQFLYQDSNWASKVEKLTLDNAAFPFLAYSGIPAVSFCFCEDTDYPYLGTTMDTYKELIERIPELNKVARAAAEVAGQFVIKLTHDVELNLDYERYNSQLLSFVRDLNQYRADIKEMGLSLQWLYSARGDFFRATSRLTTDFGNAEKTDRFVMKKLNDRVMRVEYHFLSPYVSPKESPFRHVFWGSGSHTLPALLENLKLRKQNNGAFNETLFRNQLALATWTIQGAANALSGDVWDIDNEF
T4 sequence (P02786 89-760): as above
T3 sequence (A0A2K5X958 entry or part of it): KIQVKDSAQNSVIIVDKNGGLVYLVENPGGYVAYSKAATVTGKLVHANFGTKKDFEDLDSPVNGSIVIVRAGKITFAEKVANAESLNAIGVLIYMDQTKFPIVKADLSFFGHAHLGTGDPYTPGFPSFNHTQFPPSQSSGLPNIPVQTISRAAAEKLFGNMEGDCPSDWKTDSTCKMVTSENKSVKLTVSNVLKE
T2 sequence (P02786 189-383 limits assumed): as the sequence (A0A2K5X958 entry or part of it) above, with G20R, D59Y, S60T, K104N, D106E, Q137R, K176R, N182S, S184N counted along it

Row | Binder | hCD71:HSA [1] | Apical domain:HSA [2] | RLU [3] | RLU [4] | RLU [5] | RLU [6] | Cyno apical domain:HSA [7] | hCD71:HSA [8]
1 | CD71-binding FN3 domain of SEQ ID NO: 510 (designed binder) MLPAPKNLVVSRVTEDSARLSWTAPDAAFDSFFIAYGESPESGEAIVLTVPGSERSYDLTGLKPGTEYLVWIAGVKGGYYSDPLSAIFTT | 263 | 404 | 3.39e+06 RLU | 5.21e+06 RLU |  |  |  | 
2 | CD71-binding FN3 domain of SEQ ID NO: 536 (designed binder) MLPAPKNLVVSRVTEDSARLSWTAPDAAFDSFDIGYTETVSFGEAIVLTVPGSERSYDLTGLKPGTEYIVKILGVKGGFASFPLSAIFTT | 141 | 154 | 2.99e+06 RLU | 3.26e+06 RLU |  |  |  | 
3 | CD71-binding FN3 domain of SEQ ID NO: 532 (designed binder) MLPAPKNLVVSRVTEDSARLSWTAPDAAFDSFDINYDELSGEGEAIALFVPGSERSYDLTGLKPGTEYWVSIGGVKGGRFSEPLYARFTT | 62 | 197 | 1.45e+06 RLU | 4.59e+06 RLU |  |  |  | 
4 | CD71-binding FN3 domain of SEQ ID NO: 519 (designed binder) MLPAPKNLVVSRVTEDSARLSWTAPDAAFDSFPIAYPEHLPPGEAIVLTVPGSERSYDLTGLKPGTEYPVNIRGVKGGFVSFPLSAIFTT | 156 | 253 | 3.24e+06 RLU | 5.24e+06 RLU |  |  |  | 
5 | CD71-binding FN3 domain of SEQ ID NO: 119 (designed binder) MSLPAPKNLVVSRVTEDSARLSWTAPDAAFDSFFIGYLEPQPPGEAIELYVPGSERSYDLTGLKPGTEYNVTIQGVKGGFPSDPLVAFFTT |  |  |  |  | 6.29e+06 RLU | 7.04e+06 RLU | 394 | 441
6 | CD71-binding FN3 domain of SEQ ID NO: 120 (designed binder) MSLPAPKNLVVSRVTEDSARLSWTAPDAAFDSFEIAYQELSLWGEAIVLTVPGSERSYDLTGLKPGTEYWVQIGGVKGGEWSAPLSAIFTT |  |  |  |  | 5.13e+06 RLU | 4.26e+06 RLU | 534 | 443
7 | CD71-binding FN3 domain of SEQ ID NO: 152 (designed binder) MSLPAPKNLVVSRVTEDSARLSWTAPDAAFDSFDIGYFEATYYGEAIVLTVPGSERSYDLTGLKPGTEYWVQIGGVKGGNWSAPLSAIFTT |  |  |  |  | 4.21e+06 RLU | 2.36e+06 RLU | 291 | 164
8 | CD71-binding FN3 domain of SEQ ID NO: 146 (designed binder) MSLPAPKNLVVSRVTEDSARLSWTAPDAAFDSFDIGYFENTYEGEAIVLTVPGSERSYDLTGLKPGTEYVVWIGGVKGGSYSSPLSAIFTT |  |  |  |  | 4.96e+06 RLU | 4.34e+06 RLU | 128 | 112
9 | CD71-binding FN3 domain of SEQ ID NO: 157 (designed binder) MSLPAPKNLVVSRVTEDSARLSWTAPDAAFDSFEIGYGEFTYYGEAIVLTVPGSERSYDLTGLKPGTEYWVQIGGVKGGNWSNPLSAIFTT |  |  |  |  | 4.32e+06 RLU | 2.89e+06 RLU | 530 | 355
10 | CD71-binding FN3 domain of SEQ ID NO: 148 (designed binder) MSLPAPKNLVVSRVTEDSARLSWTAPDAAFDSFEIVYQENSAYGEAIVLTVPGSERSYDLTGLKPGTEYWVQIGGVKGGEWSAPLSAIFTT |  |  |  |  | 4.72e+06 RLU | 2.45e+06 RLU | 408 | 212
11 | CD71-binding FN3 domain of SEQ ID NO: 159 (designed binder) MSLPAPKNLVVSRVTEDSARLSWTAPDAAFDSFEIVYQENSAYGEAIVLTVPGSERSYDLTGLKPGTEYWVQIGGVKGGNWSAPLSAISTT |  |  |  |  | 4.77e+06 RLU | 2.64e+06 RLU | 72 | 40
12 | CD71-binding FN3 domain of SEQ ID NO: 150 (designed binder) MSLPAPKNLVVSRVTEDSARLSWTAPDAAFDSFDIGYFENSYAGEAIVLTVPGSERSYDLTGLKPGTEYYVSIAGVKGGRFSPPLSAIFTT |  |  |  |  | 4.18e+06 RLU | 3.49e+06 RLU | 118 | 98
13 | CD71-binding FN3 domain of SEQ ID NO: 160 (designed binder) MSLPAPKNLVVSRVTEDSARLSWTAPDAAFDSFEIGYFENLYLGEAIVLTVPGSERSYDLTGLKPGTEYWVQIGGVKGGNWSVPLSAIFTT |  |  |  |  | 5.02e+06 RLU | 4.38e+06 RLU | 100 | 88
14 | CD71-binding FN3 domain of SEQ ID NO: 132 (designed binder) MSLPAPKNLVVSRVTEDSARLSWTAPDAAFDSFEIGYFENLYLGEAIVLTVPGSERSYDLTGLKPGTEYWVQIGGVKGVNWSAPLSAIFTT |  |  |  |  | 5.15e+06 RLU | 3.63e+06 RLU | 201 | 142
15 | CD71-binding FN3 domain of SEQ ID NO: 155 (designed binder) MSLPAPENLVVSRVTEDSARLSWTAPDAAFDSFEIGYFENLYLGEAIVLTVPGSERSYDLTGLKPGTEYWVQIGGVKGGVWSRPLSAIFTT |  |  |  |  | 5.19e+06 RLU | 3.55e+06 RLU | 220 | 151
16 | CD71-binding FN3 domain of SEQ ID NO: 126 (designed binder) MSLPAPKNLVVSRVTEDSARLSWTAPDAVFDSFEIAYQELSLWGEAIVLTVPGSERSYDLTGLKPGTEYYVHIGGVKGGIWSSPLSAYFTT |  |  |  |  | 5.27e+06 RLU | 3.13e+06 RLU | 382 | 227
17 | CD71-binding FN3 domain of SEQ ID NO: 149 (designed binder) MSLPAPKNLVVSRVTEDSARLSWTAPDAAFDSFDIGYFELRYYGEAIVLTVPGSERSYDLTGLKPGTEYWVSIGGVKGGTYSAPLSAIFTT |  |  |  |  | 5e+06 RLU | 3.77e+06 RLU | 455 | 342
18 | CD71-binding FN3 domain of SEQ ID NO: 164 (designed binder) MSLPAPKNLVVSRVTEDSARLSWTAPDAAFDSFFIGYLEPQPPGEAIHLYVPGSERSYDLTGLKPGTEYWVQIGGVKGGNWSAPLSAIFTT |  |  |  |  | 3.78e+06 RLU | 5.55e+06 RLU | 195 | 286
19 | CD71-binding FN3 domain of SEQ ID NO: 144 (designed binder) MSLPAPKNLVVSRVTEDSARLSWTAPDAAFDSFEIGYFENLYLGEAIVLTVPGSERSYDLTSLKPGTEYWVQIGGVKGGNWSAPLSATFTT |  |  |  |  | 5.3e+06 RLU | 4.74e+06 RLU | 150 | 134
20 | CD71-binding FN3 domain of SEQ ID NO: 151 (designed binder) MSLPAPKNLVVSRITEDSARLSWTAPDAAFDSFEIAYFETCRTGEAIVLTVPGSERSYDLTGLKPGTEYRVWIGGVKGGVWSRPLSAIVTT |  |  |  |  | 5.1e+06 RLU | 4.04e+06 RLU | 28 | 22
21 | CD71-binding FN3 domain of SEQ ID NO: 141 (designed binder) MSLPAPKNLVVSRVTEDSARLSWTAPDAAFDSFEIGYFENLYLGEAIVLTVPGSERSYDLTGLKPGTEYWVQIGGVKGGNWSAPLSAYFTT |  |  |  |  | 5.4e+06 RLU | 4.22e+06 RLU | 245 | 192
22 | CD71-binding FN3 domain of SEQ ID NO: 124 (designed binder) MSLPAPKNLVVSRVIEDSARLSWTAPDAAFDSFEIGYFENLYLGEAIVLTVPGSERSYDLTGLKPGTEYWVQIGGVKGGNWSAPLSAIFTT |  |  |  |  | 4.89e+06 RLU | 5.01e+06 RLU | 42 | 43
23 | CD71-binding FN3 domain of SEQ ID NO: 158 (designed binder) MSLPAPKNLVVSRVTEDSARLSWTAPDAAFDSFEIAYFERTWFGEAIVLTVPGSERSYDLTGLKPGTEYWVQIGGVKGGDWSKPLSAIFTT |  |  |  |  | 4.63e+06 RLU | 4.48e+06 RLU | 99 | 96
24 | CD71-binding FN3 domain of SEQ ID NO: 122 (designed binder) MSLPAPKNLVVSRVTEDSARPSWTAPDAAFDSFEIGYFENLYLGEAIVLTVPGSERSYDLTGLKPGTEYYVHIGGVKGGIWSSPLSAYFTT |  |  |  |  | 4.2e+06 RLU | 5.5e+06 RLU | 80 | 105
25 | CD71-binding FN3 domain of SEQ ID NO: 139 (designed binder) MSLPAPKNLVVSRVTEDSARLSWTAPDAAFDSFEIGYFENLYLGEAIVLTVPGSERSYDLTGLKPGTEYWVQIGGVKGGAYSTPLSAIFTT |  |  |  |  | 4.49e+06 RLU | 3.7e+06 RLU | 496 | 409
26 | CD71-binding FN3 domain of SEQ ID NO: 130 (designed binder) MSLPAPKNLVVSRVTEDSARLSWTAPDAAFDSFEIAYFERTWFGEAIVLTVPGSERSYDLTGLKPGTEYWVQIGGVKGGDWSAPLSAIFTT |  |  |  |  | 5e+06 RLU | 3.76e+06 RLU | 196 | 147
27 | CD71-binding FN3 domain of SEQ ID NO: 131 (designed binder) MSLPAPKNLVVSRVTEDSARLSWTAPDAAFDSFEIAYFENDWAGEAIVLTVPGSERSYDLTGLKPGTEYVVFIGGVKGGDFSPPLSAIFTT |  |  |  |  | 4.81e+06 RLU | 3.35e+06 RLU | 145 | 101
28 | CD71-binding FN3 domain of SEQ ID NO: 156 (designed binder) MSLPAPKNLVVSRVTEDSARLSWTAPDAAFDSFEIGYFEMSWTGEAIVLTVPGSERSYDLTGLKPGTEYVVFIGGVKGGNWSAPLSAIFTT |  |  |  |  | 4.43e+06 RLU | 3.68e+06 RLU | 83 | 69
